In the Human Domainome abundance scans (Beltran et al. 2025):
± gives the uncertainty stated by the source.

B1: POU domain, class 4, transcription factor 1, residues 266 to 347; numbered along this chain, Q01851 (parent)
chain: RELEAFAERFKQRRIKLGVTQADVGSALANLKIPGVGSLSQSTICRFESLTLSHNNMIALKPILQAWLEEAEGAQREKMNKP

Variants of: B1
Test: abundance fitness (aPCA) (normalised: wild type 0, dead -1); higher = more abundant; growth selection in yeast, the domain comes from the species named
Details: Homo sapiens

Variant | abundance fitness
RELEAFAERFKQRRIKLGVTQADVGSALANLKIPGVGSLSQSTICRFESLTLSHNGMIALKPILQAWLEEAEGAQREKMNKP | -0.023 ± 0.033
RELEAFAERFKQRRIKLGVTQADVGSALANLKIPGVGSLSQSTICRFESLTLSHNIMIALKPILQAWLEEAEGAQREKMNKP | -0.049 ± 0.098
RELEAFAERFKQRRIKLGVTQADVGSALANLKIPGVGSLSQSTICRFESLTLSHNHMIALKPILQAWLEEAEGAQREKMNKP | 0.004 ± 0.091
RELEAFAERFKQRRIKLGVTQADVGSALANLKIPGVGSLSQSTICRFESLTLSHNKMIALKPILQAWLEEAEGAQREKMNKP | 0.015 ± 0.069
RELEAFAERFKQRRIKLGVTQADVGSALANLKIPGVGSLSQSTICRFESLTLSHNLMIALKPILQAWLEEAEGAQREKMNKP | 0.058 ± 0.042
RELEAFAERFKQRRIKLGVTQADVGSALANLKIPGVGSLSQSTICRFESLTLSHNDMIALKPILQAWLEEAEGAQREKMNKP | -0.018 ± 0.075
RELEAFAERFKQRRIKLGVTQADVGSALANLKIPGVGSLSQSTICRFESLTLSHNCMIALKPILQAWLEEAEGAQREKMNKP | 0.145 ± 0.092
RELEAFAERFKQRRIKLGVTQADVGSALANLKIPGVGSLSQSTICRFESLTLSHNFMIALKPILQAWLEEAEGAQREKMNKP | -0.136 ± 0.14
RELEAFAERFKQRRIKLGVTQADVGSALANLKIPGVGSLSQSTICRFESLTLSHNAMIALKPILQAWLEEAEGAQREKMNKP | 0.055 ± 0.046
RELEAFAERFKQRRIKLGVTQADVGSALANLKIPGVGSLSQSTICRFESLTLSHNEMIALKPILQAWLEEAEGAQREKMNKP | 0.032 ± 0.044
RELEAFAERFKQRRIKLGVTQADVGSALANLKIPGVGSLSQSTICRFESLTSSHNNMIALKPILQAWLEEAEGAQREKMNKP | -0.557 ± 0.067
RELEAFAERFKQRRIKLGVTQADVGSALANLKIPGVGSLSQSTICRFESLTKSHNNMIALKPILQAWLEEAEGAQREKMNKP | -1.28 ± 0.27
RELEAFAERFKQRRIKLGVTQADVGSALANLKIPGVGSLSQSTICRFESLTYSHNNMIALKPILQAWLEEAEGAQREKMNKP | -0.701 ± 0.26
RELEAFAERFKQRRIKLGVTQADVGSALANLKIPGVGSLSQSTICRFESLTRSHNNMIALKPILQAWLEEAEGAQREKMNKP | -0.986 ± 0.084
RELEAFAERFKQRRIKLGVTQADVGSALANLKIPGVGSLSQSTICRFESLTTSHNNMIALKPILQAWLEEAEGAQREKMNKP | -0.472 ± 0.064
RELEAFAERFKQRRIKLGVTQADVGSALANLKIPGVGSLSQSTICRFESLTVSHNNMIALKPILQAWLEEAEGAQREKMNKP | -0.588 ± 0.07
RELEAFAERFKQRRIKLGVTQADVGSALANLKIPGVGSLSQSTICRFESLTHSHNNMIALKPILQAWLEEAEGAQREKMNKP | -0.234 ± 0.2

Variant | abundance fitness
RELEAFAERFKQRRIKLGVTQADVGSALANLKIPGVGSLSQSTICRFESLTISHNNMIALKPILQAWLEEAEGAQREKMNKP | -0.496 ± 0.29
RELEAFAERFKQRRIKLGVTQADVGSALANLKIPGVGSLSQSTICRFESLTWSHNNMIALKPILQAWLEEAEGAQREKMNKP | -0.546 ± 0.071
RELEAFAERFKQRRIKLGVTQADVGSALANLKIPGVGSLSQSTICRFESLTLSHLNMIALKPILQAWLEEAEGAQREKMNKP | -0.016 ± 0.052
RELEAFAERFKQRRIKLGVTQADVGSALANLKIPGVGSLSQSTICRFESLTLSHCNMIALKPILQAWLEEAEGAQREKMNKP | -0.036 ± 0.13
RELEAFAERFKQRRIKLGVTQADVGSALANLKIPGVGSLSQSTICRFESLTLSHWNMIALKPILQAWLEEAEGAQREKMNKP | -0.023 ± 0.062
RELEAFAERFKQRRIKLGVTQADVGSALANLKIPGVGSLSQSTICRFESLTLSHPNMIALKPILQAWLEEAEGAQREKMNKP | 0.104 ± 0.074
RELEAFAERFKQRRIKLGVTQADVGSALANLKIPGVGSLSQSTICRFESLTLSHFNMIALKPILQAWLEEAEGAQREKMNKP | -0.18 ± 0.12
RELEAFAERFKQRRIKLGVTQADVGSALANLKIPGVGSLSQSTICRFESLTLSHGNMIALKPILQAWLEEAEGAQREKMNKP | 0.044 ± 0.041
RELEAFAERFKQRRIKLGVTQADVGSALANLKIPGVGSLSQSTICRFESLTLSHDNMIALKPILQAWLEEAEGAQREKMNKP | -0.094 ± 0.1
RELEAFAERFKQRRIKLGVTQADVGSALANLKIPGVGSLSQSTICRFESLTLSHINMIALKPILQAWLEEAEGAQREKMNKP | -0.093 ± 0.14
RELEAFAERFKQRRIKLGVTQADVGSALANLKIPGVGSLSQSTICRFESLTLSHVNMIALKPILQAWLEEAEGAQREKMNKP | -0.051 ± 0.043
RELEAFAERFKQRRIKLGVTQADVGSALANLKIPGVGSLSQSTICRFESLTLSHTNMIALKPILQAWLEEAEGAQREKMNKP | 0.034 ± 0.067
RELEAFAERFKQRRIKLGVTQADVGSALANLKIPGVGSLSQSTICRFESLTLSHRNMIALKPILQAWLEEAEGAQREKMNKP | 0.045 ± 0.039
RELEAFAERFKQRRIKLGVTQADVGSALANLKIPGVGSLSQSTICRFESLTLSHKNMIALKPILQAWLEEAEGAQREKMNKP | -0.038 ± 0.074
RELEAFAERFKQRRIKLGVTQADVGSALANLKIPGVGSLSQSTICRFESLTLSHHNMIALKPILQAWLEEAEGAQREKMNKP | -0.06 ± 0.096
RELEAFAERFKQRRIKLGVTQADVGSALANLKIPGVGSLSQSTICRFESLTLSHANMIALKPILQAWLEEAEGAQREKMNKP | 0.023 ± 0.041
